Assay [1] deals with Myostatin (human) (UniProt O14793). As to the kind of experiment: cell-based or functional assay.
For assay [2], the target named is T1, Activin A (Homo sapiens (Human), UniProt P08476 311-426).
T1 sequence: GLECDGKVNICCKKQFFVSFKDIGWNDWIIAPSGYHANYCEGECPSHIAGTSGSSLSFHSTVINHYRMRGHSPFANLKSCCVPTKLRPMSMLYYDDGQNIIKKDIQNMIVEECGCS
As to the kind of experiment: Biacore SPR grade, CHO stable conditioned media, 20 nM activin A. On the procedure: (§1) Qualitative BIAcore® Assay. E28 and R40 were substituted respectively with other natural amino acids in fusions with IgG1 Fc as described above. Each vActRIIB-IgG1Fc sample from conditioned media was captured on goat anti-human IgG1 Fc antibody (Jackson Immuno Research, cat#109-005-098, lot 63550) coated CMS surface. 20 nM of Activin A was injected over captured sample surfaces using BIACore2000 (BIACore Life Sciences, Piscataway, N.J.). The resulting sensorgrams were normalized to the captured RL (500 RU) of vActRIIB-IgG1Fc variants. The normalized binding response (RU) for some variants are shown in Table 2, and is further described below. Relative binding affinity for activin was also determined by Biacore measurements using conditioned media obtained from mammalian cell expression. Activin A (20 nM) was used to capture soluble receptor polypeptide in the conditioned media and measured SPR signals were normalized. Normalized SPR of +++++: >60, ++++:40-60, +++:20-40, ++:10-20, +: 5-10, −: <5.

For assay [3], the target named is T1, Activin A. As to the kind of experiment: Biacore SPR grade, COS transient conditioned media, 20 nM activin A. On the procedure:
as §1
On the technique in general: Surface plasmon resonance follows binding to a sensor surface in real time, without labels.

Assay [4] deals with T1, Activin A. Briefly: Biacore SPR grade, COS stable conditioned media, 20 nM activin A. On the procedure:
as §1

Chain of Myostatin (human) (O14793 267-375 limits assumed): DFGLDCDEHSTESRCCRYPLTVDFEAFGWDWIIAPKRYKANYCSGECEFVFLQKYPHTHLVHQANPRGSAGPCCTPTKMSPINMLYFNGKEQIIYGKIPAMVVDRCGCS

The molecule “hActRIIB-hIgG2Fc (E28W) (SEQ ID NO: 91) (Fc fusion)” returned an IC50 (nM) for myostatin cell based assay, C2C12/pMARE-luc, 4 nM myostatin in assay [1] of 0.9 nM.
Regarding “hActRIIB-hIgG2Fc (E28Y) (SEQ ID NO: 93) (Fc fusion)”, the IC50 (nM) for myostatin cell based assay, C2C12/pMARE-luc, 4 nM myostatin in assay [1] is 1 nM.
As to “hActRIIB-hIgG2Fc (SEQ ID NO: 89) (Fc fusion)”, the IC50 (nM) for myostatin cell based assay, C2C12/pMARE-luc, 4 nM myostatin in assay [1] amounted to 1.1 nM.

B1: ActRIIB-IgG1 Fc wild type, linker GGGGS (Fc fusion)
chain: SGRGEAETRECIYYNANWELERTNQSGLERCEGEQDKRLHCYASWRNSSGTIELVKKGCWLDDFNCYDRQECVATEENPQVYFCCCEGNFCNERFTHLPEAGGPEVTYEPPPTAPTGGGGSAPELLGGPSVFLFPPKPKDILMISRTPEVTCVVVDVSHEDPEVKFNWYVGGVEVHNAKTKPREEQYNSTYRVVSVLTVLHQDWLNGKEYKCKVSNKALPAPIEKTISKAKGQPREPQVYTLPPSRDELTKNQVSLTCLVKGFYPSDIAVEWESNGQPENNYKTTPPVLDSDGSFFLYSKLTVDKSRWQQGNVFSCSVMHEALHNHYTQKSLSLSPGK
notes: Tested from conditioned media
As to B1, the “Normalized SPR” value in assay [2] fell in the range of 40 to 60 ru. The “normalized SPR signal” value in assay [3] was in the range of 5 to 10 ru.

B2: ActRIIB-IgG1 Fc E28A, linker GGGGS (Fc fusion)
chain: SGRGEAETRACIYYNANWELERTNQSGLERCEGEQDKRLHCYASWRNSSGTIELVKKGCWLDDFNCYDRQECVATEENPQVYFCCCEGNFCNERFTHLPEAGGPEVTYEPPPTAPTGGGGSAPELLGGPSVFLFPPKPKDILMISRTPEVTCVVVDVSHEDPEVKFNWYVGGVEVHNAKTKPREEQYNSTYRVVSVLTVLHQDWLNGKEYKCKVSNKALPAPIEKTISKAKGQPREPQVYTLPPSRDELTKNQVSLTCLVKGFYPSDIAVEWESNGQPENNYKTTPPVLDSDGSFFLYSKLTVDKSRWQQGNVFSCSVMHEALHNHYTQKSLSLSPGK
notes: Tested from conditioned media
On to B2, for which the “Normalized SPR” value in assay [2] was in the range of 20 to 40 ru. In addition, the “normalized SPR signal” value in assay [3] lay in the range of 5 to 10 ru.

B3: ActRIIB-IgG1 Fc wild type, no linker (Fc fusion)
chain: SGRGEAETRECIYYNANWELERTNQSGLERCEGEQDKRLHCYASWRNSSGTIELVKKGCWLDDFNCYDRQECVATEENPQVYFCCCEGNFCNERFTHLPEAGGPEVTYEPPPTAPTAPELLGGPSVFLFPPKPKDILMISRTPEVTCVVVDVSHEDPEVKFNWYVGGVEVHNAKTKPREEQYNSTYRVVSVLTVLHQDWLNGKEYKCKVSNKALPAPIEKTISKAKGQPREPQVYTLPPSRDELTKNQVSLTCLVKGFYPSDIAVEWESNGQPENNYKTTPPVLDSDGSFFLYSKLTVDKSRWQQGNVFSCSVMHEALHNHYTQKSLSLSPGK
notes: Tested from conditioned media
In the case of B3, in assay [4], the “Normalized SPR” value is 10 to 20 ru.

B4: ActRIIB-IgG1 Fc R40A, no linker (Fc fusion)
chain: SGRGEAETRECIYYNANWELEATNQSGLERCEGEQDKRLHCYASWRNSSGTIELVKKGCWLDDFNCYDRQECVATEENPQVYFCCCEGNFCNERFTHLPEAGGPEVTYEPPPTAPTAPELLGGPSVFLFPPKPKDILMISRTPEVTCVVVDVSHEDPEVKFNWYVGGVEVHNAKTKPREEQYNSTYRVVSVLTVLHQDWLNGKEYKCKVSNKALPAPIEKTISKAKGQPREPQVYTLPPSRDELTKNQVSLTCLVKGFYPSDIAVEWESNGQPENNYKTTPPVLDSDGSFFLYSKLTVDKSRWQQGNVFSCSVMHEALHNHYTQKSLSLSPGK
notes: Tested from conditioned media
Consider B4, for which the “Normalized SPR” value in assay [4] lay in the range of 10 to 20 ru.

B5: ActRIIB-IgG1 Fc E28A, no linker (Fc fusion)
chain: SGRGEAETRACIYYNANWELERTNQSGLERCEGEQDKRLHCYASWRNSSGTIELVKKGCWLDDFNCYDRQECVATEENPQVYFCCCEGNFCNERFTHLPEAGGPEVTYEPPPTAPTAPELLGGPSVFLFPPKPKDILMISRTPEVTCVVVDVSHEDPEVKFNWYVGGVEVHNAKTKPREEQYNSTYRVVSVLTVLHQDWLNGKEYKCKVSNKALPAPIEKTISKAKGQPREPQVYTLPPSRDELTKNQVSLTCLVKGFYPSDIAVEWESNGQPENNYKTTPPVLDSDGSFFLYSKLTVDKSRWQQGNVFSCSVMHEALHNHYTQKSLSLSPGK
notes: Tested from conditioned media
B5: the “Normalized SPR” value in assay [4] was 10 to 20 ru.

Source of the values: patent US20130288983A1 (Amgen, published 2013).
